The series is described as follows: label from the status in PepcDB records.
As to “MASYTLRQLKYFVTTVECGSVAEASRKLYIAQPSISTAVKGLEESFGVQLFIRHHAQGVSLTPAGARFYRKAQELLRMAHEFEQNALADNDVIAGQIDIGCFETVAPLYLPGLIAGFRQAYPGVEIRIRDGEQQELVQGLTSGRFDLAFLYEHDLDSTIETEPLMPPQRPHALLPEGHRFAGQAQVSLRDLCLEPMILLDVQPSRTYFVSLFEELGLTPNIAFSSPSIEMVRGMVGQGFGFSLLVTRPHSECTYDGKKVVMVDLAEPVSTSGLAAAWLKRAQLTKPARLFVDYCREQLGKLAERRH”, the protein production result is recorded as “not failed”. The entry for “MPSPSGSSTLSKPAPRFASIGSPYFGIMLAIMAVVLILSNIGASKGVVLGPIITDGGFFLFPLAYILGDVMSEVYGFKVARKAIITSFALSVFASLCYWIIIVLPGFNDEYGTAKQAAIEGALGPVPLIVLGSLLAFLAGQTINSWILVKMKARTGEKSLWARLMGSSVVGEFVDTLIFCSIAASVIGITDFGSFLNYVLVGFVYKTAVEFLFVPVTVLVVGWIKKREPSYGVVAA” is “failed”; for “MANDGYFEPTQELSDETRDMHRAIISLREELEAVDLYNQRVNACKDKELKAILAHNRDEEKEHAAMLLEWIRRCDPAFDKELKDYLFTNKPIAHE” it is “not failed”; for “MAEKTYSGFVAIVGKPNVGKSTLLNNLLGVKVAPISPRPQTTRKRLRGILTEGRRQIVFVDTPGLHKPMDALGEFMDQEVYEALADVNAVVWVVDLRHPPTPEDELVARALKPLVGKVPILLVGNKLDAAKYPEEAMKAYHELLPEAEPRMLSALDERQVAELKADLLALMPEGPFFYPEDYAKSDQTFGEWVAEILREEAMKRLWHEVPYAVATKVEEVAERENGVLYIKAILYVERPSQKAIVIGEGGRKIKEIGQATRKQLEALLGKKVYLDLEVKVYPDWRKDPEALRELGYRSSVG” it is “not failed”. The entry for “MSVTFSYLAETDYPVFTLGGSTADAARRLAASGCACAPVLDGERYLGMVHLSRLLEGRKGWPTVKEKLGEELLETVRSYRPGEQLFDNLISVAAAKCSVVPLADEDGRYEGVVSRKRILGFLAERIHSGEGGLTMEIEVPPTGAKLSEIIETIEKNDASILSFTSWTTGEGRIIFFRVATHDFFRLVRNMENYGYLIRYHSAFPNAGYDELREKALEFIHYMDM” is “not failed”; for “DDFETSLTELEPLEKDAYIVRLVFAGSTTTEPIVSSLSTAYDIKINILEANIKNTKNGTVGFLVLHIPYISSVDFGKFEKELIERQVKMEVLRHG” it is “not failed”; for “MINMKPQYYLGMMSGTSLDGVDIVLVDFSQDPQLILSDFFPMPEDLREKLTTLIQVGETTLQNLGELDHKLALLYSDCVNAFLQKNTFLPNQIQAIGCHGQTVWHSPNSQFPFTMQLGDMNLLAAKTGISVIGDFRRKDMAWGGQGAPLVPAFHEAVFSNSNFATAVLNIGGISNVSILFPNQAVIGFDTGPGNTLLDQWIEKHQGLRYDENGEWAAKGNVNKVLLDELLNEPFFSLPAPKSTGRELFNLVWLNHKIAKIREKLTALSVEMSFRPEDVQATLVELTVTSIVNALNQLQTDLPKRLLVCGGGAKNSLIMRGLHDNLLDWQVSTTTEQGFDIDYVEAAAFAWLAYCRINNLPANLPSVTGAKSAVSLGAIFPKD” it is “failed”. Turning to “MRRFVIGQAKNLIDQSRRRQLHHHKNLSFVSLIPPFSAPSDSSSRHLSSSSSSDMSASDSSSSLPVTLDTINPKVIKCEYAVRGEIVNIAQKLQEDLKTNKDAYPFDEIIYCNIGNPQSLGQQPITFFREVLALCSYTALLDESATHGLFSSDSIERAWKILDQIPGRATGAYSHSQGIKGLRDAIADGIEARDGFPADPNDIFMTDGASPGVHMMMQLLITSEKDGILCPIPQYPLYSASIALHGGTLVPYYLDEASGWGLEISELKKQLEDARSKGITVRALAVINPGNPTGQVLSEENQRDVVKFCKQEGLVLLADEVYQENVYVPDKKFHSFKKVARSMGYGEKDLALVSFQSVSKGYYGECGKRGGYMEVTGFTSDVREQIYKMASVNLCSNISGQILASLIMSPPKPGDDSYESYIAEKDGILSSLARRAKTLEEALNKLEGVTCNRAEGAMYLFPCLHLPQKAIAAAEAEKTAPDNFYCKRLLKATGIVVVPGSGFRQVPGTWHFRCTILPQEDKIPAIVDRLTAFHQSFMDEFRD”, the protein production result is recorded as “failed”. The result for “QLSSFETCAEKEESANTTESAIFEYHCEMSFDPNLLHNNGHNGYPNGTSAALRETGVIEKLLTSYGFIQCSERQARLFFHCSQYNGNLQDLKVGDDVEFEVSSDRRTGKPIAVKLVKIKQEILPEERMNGQVVCAVPHNLESKSPAAPGQSPTGSVCYERNGEVFYLTYTPEDVEGNVQLETGDKINFVIDNNKHTGAVSARNIMLLKKKQARCQGVVCAMKEAFGFIERGDVVKEIFFHYSEFKGDLETLQPGDDVEFTIKDRNGKEVATDVRLLPQGTVIFEDISIEHFEGTVTKVIPKVPSKNQNDPLPGRIKVDFVIPKELPFGDKDTKSKVTLLEGDHVRFNISTDRRDKLERATNIEVLSNTFQFTNEAREMGVIAAMRDGFGFIKCVDRDVRMFFHFSEILDGNQLHIADEVEFTVVPDMLSAQRNHAIRIKKLPKGTVSFHSHSDHRFLGTVEKEATFSNPKTTSPNKGKEKEAEDGIIAYDDCGVKLTIAFQAKDVEGSTSPQIGDKVEFSISDKQRPGQQVATCVRLLGRNSNSKRLLGYVATLKDNFGFIETANHDKEIFFHYSEFSGDVDSLELGDMVEYSLSKGKGNKVSAEKVNKTHSVNGITEEADPTIYSGKVIRPLRSVDPTQTEYQGMIEIVEEGDMKGEVYPFGIVGMANKGDCLQKGESVKFQLCVLGQNAQTMAYNITPLRRATVECVKDQFGFINYEVGDSKKLFFHVKEVQDGIELQAGDEVEFSVILNQRTGKCSACNVWRVCEGPKAVAAPRPDRLVNRLKNITLDDASAPRLMVLRQPRGPDNSMGFGAERKIRQAGVID” reads “not failed”.

“MDGKRVWLSDDELTRFIEQAETPHQRLAFLLAGRVGLRRSEIIEVCPQDLVDGPTGDHIRVWESYAKRDKYREPPVPQEVVTIAETLAYQQDDDEPLLDVAGSTVYRWVRRAADELEEETGDRGWQYLDVHDLRRTWGTYLLEQGVIPSVVMSFGGWEDWDTFRKHYLGEFSLEHHHHHH”: the protein production entry was “not failed”. The entry for “MTDDRYTVISADCHAGADLLDYRPYLAKRHHDAFDAWAATYVNPYEDLLADTADRNWNSERRLAELAADGIVAEVVFPNTIPPFFPSASLMAPAPTAAEFEQRWAGLRAHNRWLADFCAAAPGRRAGVFQILLNDVEEAVKEISWAAGAGLRGGLLLPGTPPGSGLPELYSKAYDPIWAVCEELDVPVNHHAGSASPPLGDEPAARAVFMVETTWFSHRALWHLVFGGAFRRHPGLRLVLTEQGSGWIPGVLDMLDYYHGRLVAAGPKSATAEAKFGAGLDRAMGKGPSEVWRDNCFVGASFMRPHEVPLRDRIGLDKIMWGSDYPHDEGTYPYSREGLRIAYAGLPRTEIAAMAGGNAARVYGFDLSLLDPIAAKVGPTVAELARPLEEPPADATSPVFARGGSVRVW” is “failed”; for “MGVVLIDGSTVRSFVDDEEQFKKSVDERFAALDLNKDGVLSRSELRKAFESMRLLESHFGVDVVTPQDELTNLYDSIFEKFDTDQSGSVDLEEFRSEMKKIVLAIADGLGSCPITMVLDDDDDNFLKKAADLEASKLEKASS” it is “failed”. In the case of “VVENYETQFVTFVESEMEQDLAHDLNHVFRVVKTAKLLSKIEGAMLEVVLPAAYLHDCFSFPKNHPNKAESSRIAADKALEFLNEIGYPNEYHDAIKHAIIAHSFSAKVQPDTLEAKVVQDADRLDALGAIGIARCIQVSTNLGVGLYDATDPFCGTREPNDRVNTVDHFYTKLFKLPEIMHTASAKVEAEKRMKFMKAYLIQLGMEIEPYS”, the protein production entry is on record as “failed”.

On to “MSPENKICMEQSEDGDLDAGDELFEEVDGDGKGEIFANRELLNIDHVPDENRIVGRDEHITELANEIGPAVTGSPPNSVILYGKTGSGKSLVANHVMERARREAQRRDRRLATVTVDCAQSRGEADTVQTIADKINRSTSGVTVPTRGISTNEYYNRLWQILGTEYDAALITLDEVDRLSDDDILMILSRAREAGKVDVPIGIISISNKVNFREQMTERVKSSLGHNEMIFDPYDGEQLRQILENRKDAFQEDILMPGVIPKTAALAAQRHGDARKAIRLLRHAGDYAKTNNIGTVKESHLELAQEQAEVERLKELISGLPPHSKYVLYALANLTDGTTNSNDWFRTTVIYDVYEEVCKTEATDTLTTDTIRGLLNELAFLEITESNQEHGGMGKGTYKEHRLLWDPNVVFKMNPGSAQVDTDR”, for which the protein production entry was “failed”.

In the case of “MKWRCLIYIETRGDILFMTKWFNVGKIVNTHGVRGEIRVISRTDFPEERYKVGNTLYISNEKGTDYLPVKVTSHRQHKTFDLLTFEGYNNVDEVEKFKGSLIKVPEEQLGELAEGEYYYHEIIGCSVVTEEGEALGTIKEILSPGANDVWVIKRPKGQDLLIPYIDDVVLQVNIENKLVTIHVMEGLLLEHHHHHH”, the protein production result is listed as “not failed”.

Consider “MDKVFGRTQGLKKSELKRISNLYRRRLPKDRVLTPELAHTLAALSAEVGRPLSLVLDREGRVVRVAVGDAKDVPFPEEGWSERRLSGYRLLHTHLGPGGLSRPDLSVLFLRRLDNLAALEVEADGRPGLLHLAFLSPPRALEEDWRVLPPKPFHQYLDLDLWGEVMALEEELSRQARVLEVRDGSGERALLVGVDTGEGPEAEAVLRELAELTRTAGGVPVKQILVFRKSLDPRYLVGLGKLEELKSLAYHENASTLIFGVDLTPAQAREIERVTGLKVLDRTQLILDIFALHAKTPEAQAQVELAQLRYLLPRLVGKGKEMSRLGGGIGTRGPGETKLEVDRRRLQDRIAHLSRKLQDYALRRQEARQKRKRRGVPLVAVVGYTNAGKTTLLRALTRAGEEGEDKLFATLRPLTRRGFLPGVGEVLFTDTVGFIRHMPEELLTAFRATLEEVREADVLVHVLDASEEGALERHRVVRDLLLDLGVEAPVVLALNKADRAAPYDLYFLGERLGGVPVSALKGTGLKELKEALARALLDLGVRPQAWAQYT”, for which the protein production result is recorded as “failed”. “QGHLVHMTVVSGSNVTLNISESLPENYKQLTWFYTFDQKIVEWDSRKSKYFESKFKGRVRLDPQSGALYISKVQKEDNSTYIMRVLKKTGNEQEWKIKLQVLDPVPKPVIKIEK”: the protein production result is “not failed”. Take “MYFLKKIVNLFSSKIESEDNNVKKDDLTQPRKQSPEARKRRNRRIIFWLIILLIIGTIIGVIIYFSVRKEYDNVIVKSAQTEVVNNKKVLYLNTIRPNSTQITRYTIDEDQLLTARVNILNNTNFQIISNASSLGLSRISFNIVREGVEKFKLGETNIYAPISGNTNNQWNWLTSIITQNAGIPSSGFNPQVIISPLISIIFFIIFLYIILRVSKAQSDSLLGTNKANAKLTKSGVRFSDVAGIAEVKEELIEIVDFLKEPKKYVAAGARIPKGVMLYGPPGTGKTLIAKAVAGEANVPFFQTTGSSFEDTFVGVGARRVRELFEKARKSAPAIIFIDEIDSVAKKRGNSLTAVQDQTINQLLSELDGFDTSSGVIVMAATNRLDTLDDAILRPGRFDRQISVNLPDILEREQILRIHSRNKNLSAKVSLEDIARRTAGFSGAQLENVLNEAALLSVRDKATSIHMNHLDEAIDRVIAGPSRPNKVISEREREQVSYHEAGHALIGLYSPGADVVQKITIVARGRAAGYTLQTPERNENILQNKTELISRVRTALGGRAAEELIYGPNEITTGAANDFYKITNIVRAMVASFGMTDVGLTQYIATEGVDNPYRNSYSEQTALAIDIEIEKIIQREYKIVKEMINEHREELELIVQTLLELETILKPQIDYIHQYKQLPPEVIANKNKREASQKQANSSVEEAKVVDDEESIKDKEKDQKSN”: the protein production entry is given as “failed”.

On to “MISLQFFITAFVVVLAPGTGVIYTLAIGLGRGRSAAAWAALGCTLGILPHLAAAILGLAAILHSSALLFQLVKAAGVAYLLYLAWQALRSDGALAIRSEHSHQPGWRIAWRGALINILNPKLSVFFLALLPPFLSGNPASATAEMSLLGLVFMAMTFAVFLLYGAFASAARTYLMQSERALRWMGRGFALVFAGLAARLAMERA”, for which the protein production entry is given as “failed”.

Source of the values: a protein production outcome set (Wang et al. 2014).
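Also: failed if final PepcDB status was selected cloned or expressed and not failed if soluble or beyond.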
